Experimental data as given in patent publication US20130209454A1 (CALIFORNIA INSTITUTE OF TECHNOLOGY, published 2013).

Columns and labels:
Test in all cases: cell-based or functional assay
[1] = molecular target: HIV-1 Env of strain ZM249M.PL1 (HIV-1)
[2] = molecular target: HIV-1 Env of strain ZM53M.PB12 (HIV-1)
[3] = molecular target: HIV-1 Env of strain Du156.12 (HIV-1)
[4] = molecular target: HIV-1 Env of strain ZM109F.PB4 (HIV-1)
[5] = molecular target: HIV-1 Env of strain ZM135M.PL10a (HIV-1)
[6] = molecular target: HIV-1 Env of strain ZM214M.PL15 (HIV-1)
[7] = molecular target: HIV-1 Env of strain ZM197M.PB7 (HIV-1)
[8] = molecular target: HIV-1 strain CNE17 envelope (gp120) (HIV-1)
[9] = molecular target: HIV-1 strain 3016.v5.c45 envelope (gp120) (HIV-1)
[10] = molecular target: HIV-1 strain Ce2010_F5 envelope (gp120) (HIV-1)
[11] = molecular target: HIV-1 strain Q461.e2 envelope (gp120) (HIV-1)
[12] = molecular target: HIV-1 strain R2184.04 envelope (gp120) (HIV-1)
[13] = molecular target: HIV-1 strain CNE58 envelope (gp120) (HIV-1)
[14] = molecular target: HIV-1 strain Ce2060_G9 envelope (gp120) (HIV-1)
[15] = molecular target: HIV-1 strain 3301.v1.c24 envelope (gp120) (HIV-1)
[16] = molecular target: HIV-1 strain 703357.C02 envelope (gp120) (HIV-1)
[17] = molecular target: HIV-1 strain 1054_07_TC4_1499 envelope (gp120) (HIV-1)
[18] = molecular target: HIV-1 strain 62357_14_D3_4589 envelope (gp120) (HIV-1)
[19] = molecular target: HIV-1 strain 89-F1_2_25 envelope (gp120) (HIV-1)
[20] = molecular target: HIV-1 strain 1056_10_TA11_1826 envelope (gp120) (HIV-1)
[21] = molecular target: HIV-1 strain TRJO4551.58 envelope (gp120) (HIV-1)
[22] = molecular target: HIV-1 strain 3103.v3.c10 envelope (gp120) (HIV-1)
[23] = molecular target: HIV-1 strain CAAN5342.A2 envelope (gp120) (HIV-1)
[24] = molecular target: HIV-1 strain CNE21 envelope (gp120) (HIV-1)
[25] = molecular target: HIV-1 strain T257-31 envelope (gp120) (HIV-1)
[26] = molecular target: HIV-1 strain ZM53M.PB12 envelope (gp120) (HIV-1)
[27] = molecular target: HIV-1 strain WITO4160.33 envelope (gp120) (HIV-1)
[28] = molecular target: HIV-1 strain 211-9 envelope (gp120) (HIV-1)
[29] = molecular target: HIV-1 strain Q769.d22 envelope (gp120) (HIV-1)
[30] = molecular target: HIV-1 strain Du172.17 envelope (gp120) (HIV-1)
[31] = molecular target: HIV-1 strain Ce0682_E4 envelope (gp120) (HIV-1)
[32] = molecular target: HIV-1 strain ZM214M.PL15 envelope (gp120) (HIV-1)
[33] = molecular target: HIV-1 strain REJO4541.67 envelope (gp120) (HIV-1)
[34] = molecular target: HIV-1 strain SC422661.8 envelope (gp120) (HIV-1)
[35] = molecular target: HIV-1 strain X2131_C1_B5 envelope (gp120) (HIV-1)
[36] = molecular target: HIV-1 strain T250-4 envelope (gp120) (HIV-1)
[37] = molecular target: HIV-1 strain QH0692.42 envelope (gp120) (HIV-1)
[38] = molecular target: HIV-1 strain CAP45.2.00.G3 envelope (gp120) (HIV-1)
[39] = molecular target: HIV-1 strain AC10.0.29 envelope (gp120) (HIV-1)
[40] = molecular target: HIV-1 strain T257-31 envelope (gp120) (HIV-1); remark: listed apart in the source
[41] = molecular target: HIV-1 strain ZM214M.PL15 envelope (gp120) (HIV-1); remark: listed apart in the source
[42] = molecular target: HIV-1 strain SC422661.8 envelope (gp120) (HIV-1); remark: listed apart in the source

B1: NIH45-46 IgG (antibody, V domains shown)
VH: QVRLSQSGGQMKKPGESMRLSCRASGYEFLNCPINWIRLAPGRRPEWMGWLKPRGGAVNYARKFQGRVTMTRDVYSDTAFLELRSLTSDDTAVYFCTRGKYCTARDYYNWDFEHWGRGAPVTVSS
VL: EIVLTQSPATLSLSPGETAIISCRTSQSGSLAWYQQRPGQAPRLVIYSGSTRAAGIPDRFSGSRWGADYNLSISNLESGDFGVYYCQQYEFFGQGTKVQVDI
- neutralization IC50 [1]: 0.02 µg/mL
- neutralization IC50 [2]: 0.65 µg/mL
- neutralization IC50 [3]: 0.01 µg/mL
- neutralization IC50 [4]: 0.22 µg/mL
- neutralization IC50 [5]: 0.36 µg/mL
- neutralization IC50 [6]: 0.05 µg/mL
- neutralization IC50 [7]: 0.14 µg/mL

B2: NIH45-46 IgG (antibody, V domains shown)
VH: B1 VH
VL: B1 VL
- neutralization IC80 [8]: 0.734 µg/mL
- neutralization IC80 [9]: > 50 µg/mL
- neutralization IC80 [10]: 0.357 µg/mL
- neutralization IC80 [11]: 0.291 µg/mL
- neutralization IC80 [12]: 0.127 µg/mL
- neutralization IC80 [13]: 2.08 µg/mL
- neutralization IC80 [14]: 0.29 µg/mL
- neutralization IC80 [15]: 0.033 µg/mL
- neutralization IC80 [16]: > 50 µg/mL
- neutralization IC80 [17]: 0.404 µg/mL
- neutralization IC80 [18]: 0.19 µg/mL
- neutralization IC80 [19]: > 50 µg/mL
- neutralization IC80 [20]: 0.447 µg/mL
- neutralization IC80 [21]: 0.13 µg/mL
- neutralization IC80 [22]: 6.15 µg/mL
- neutralization IC80 [23]: 0.4 µg/mL
- neutralization IC80 [24]: 38.1 µg/mL
- neutralization IC80 [25]: 1.38 µg/mL
- neutralization IC80 [26]: 0.61 µg/mL
- neutralization IC80 [27]: 0.26 µg/mL
- neutralization IC80 [28]: > 50 µg/mL
- neutralization IC80 [29]: 0.033 µg/mL
- neutralization IC80 [30]: > 50 µg/mL
- neutralization IC80 [31]: 0.155 µg/mL
- neutralization IC80 [32]: 0.59 µg/mL
- neutralization IC80 [33]: 0.035 µg/mL
- neutralization IC80 [34]: 0.13 µg/mL
- neutralization IC80 [35]: 0.88 µg/mL
- neutralization IC80 [36]: > 50 µg/mL
- neutralization IC80 [37]: 1.71 µg/mL
- neutralization IC50 [38]: > 50 µg/mL
- neutralization IC50 [39]: 0.9 µg/mL
- neutralization IC50 [40]: 0.5 µg/mL
- neutralization IC50 [41]: 0.5 µg/mL
- neutralization IC50 [42]: 0.05 µg/mL
